B1: GST-BRI1-KD (protein)
chain: REMRKRRRKKEAELEMYAEGHGNSGDRTANNTNWKLTGVKEALSINLAAFEKPLRKLTFADLLQATNGFHNDSLIGSGGFGDVYKAILKDGSAVAIKKLIHVSGQGDREFMAEMETIGKIKHRNLVPLLGYCKVGDERLLVYEFMKYGSLEDVLHDPKKAGVKLNWSTRRKIAIGSARGLAFLHHNCSPHIIHRDMKSSNVLLDENLEARVSDFGMARLMSAMDTHLSVSTLAGTPGYVPPEYYQSFRCSTKGDVYSYGVVLLELLTGKRPTDSPDFGDNNLVGWVKQHAKLRISDVFDPELMKEDPALEIELLQHLKVAVACLDDRAWRRPTMVQVMAMFKEIQAGSGIDSQSTIRSIEDGGFSTIEMVDMSIKEVPEGKL
mass spectrometry of BRI1-phosphorylated BRK1 (GST-BRK1): identified serine 230 of BRK1 as a BRI1 phosphorylation site
in vitro kinase assay (32P autoradiography), reduction of phosphorylation (GST tagged BRK1-S230A): a S230A mutation reduced the phosphorylation by 82%

Chain of GST-BRK1 (chain, as listed by the source): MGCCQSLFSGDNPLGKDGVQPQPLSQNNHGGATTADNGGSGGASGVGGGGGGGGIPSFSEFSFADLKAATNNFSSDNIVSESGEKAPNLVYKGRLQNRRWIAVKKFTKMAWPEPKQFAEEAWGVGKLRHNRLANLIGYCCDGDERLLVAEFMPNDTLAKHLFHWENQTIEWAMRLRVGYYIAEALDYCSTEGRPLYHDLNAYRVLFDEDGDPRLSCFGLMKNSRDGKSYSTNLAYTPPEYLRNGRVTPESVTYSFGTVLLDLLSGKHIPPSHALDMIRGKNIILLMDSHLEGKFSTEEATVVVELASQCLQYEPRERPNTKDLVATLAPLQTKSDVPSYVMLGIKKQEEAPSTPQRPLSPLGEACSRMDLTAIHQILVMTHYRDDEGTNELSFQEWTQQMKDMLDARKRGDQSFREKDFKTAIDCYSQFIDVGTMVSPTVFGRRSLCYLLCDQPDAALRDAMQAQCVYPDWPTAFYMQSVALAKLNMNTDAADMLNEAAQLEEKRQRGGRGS
